Changes are numbered by the printed parent chain.
T1: human IL4 (human, UniProt P05112 25-153, biotinylated in the SPR and competition assays (sites not given))
T1 sequence: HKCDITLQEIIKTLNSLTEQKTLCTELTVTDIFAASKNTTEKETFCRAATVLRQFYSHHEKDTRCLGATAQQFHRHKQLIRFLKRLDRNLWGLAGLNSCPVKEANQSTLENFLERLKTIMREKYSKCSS

B1: C06_53E9 (designed binder)
chain: DLGKELLEAASAGQDDEVHILMANGADVNASDKDGSTPLHLAAVYGHLEIVEVLLKYGADVNAEDMNGYTPLHLAAADGHLEIVEVLLKYGADVDAKDRTGWTPLHLAGEFGHLEIVEVLLKYGADVNAQDKFGKTAFDISIDNGNEDLAEILQKLN
notes: ankyrin repeat protein; His-tagged, IMAC-purified
B2: C06_53G6 (designed binder)
chain: NLGKKLLEAARAGQDDEVRILMANGADVNATDDWGDTLLHLAATDGHLEIVEVLLKYGADVNANDAIGDTPLHLAALYGHLEIVEVLLKYGADVNATDLHGFTPLHLAAFWGHLEIVEVLLKHGADVNAQDKFGKTAFDISIDNGNEDLAEILQKLN
notes: as for B1
B3: C06_6E9 (designed binder)
chain: DLGKKLLEAARAGQDDEVRILMANGADVNAIDSDGTTPLHLAAMDGHLEIVEVLLKYGADVNAVDWNGDTPLHLAAVDGHLEIVEVLLKYGADVNAQDNLGDTPLHLAAYYGHLEIVEVLLKHGADVNASDFHGITPLHLAAFSGHLEIVEVLLKYGADVNAQDKFGKTAFDISIDNGNEDLAEILQKLN
notes: as for B1
B4: 5D12 (designed binder)
chain: DLGKKLLEAARAGQDDEVRILMANGADVNAVDDYGSTPLHLAARQGHLEIVEVLLKNGADVNADDFIGDTPLHLAAFKGHLEIVEVLLKNGADVNASDITGETPLHLAATAGHLEIVEVLLKHGADVNAQDKFGKTAFDISIDNGNEDLAEILQKLN
notes: N-Cap-(AR)3-C-Cap
B5: 6D4 (designed binder)
chain: DLGKKLLEAARAGQDDEVRILMANGADVNAADDYGSTPLHLAARSGHLEIVEVLLKHGADVNANDFIGDTPLHLAAYNGHLEIVEVLLKNGADVNATDITGETPLHLAAERGHLEIVEVLLKNGADVNTQDKFGKTAFDISIDNGNEDLAEILQKLN
notes: N-Cap-(AR)3-C-Cap
B6: 5H7 (designed binder)
chain: DLGKKLLEAARAGQDDEVRILMANGADVNAADMYGTTPQHLAARTGHLEIVEVLLKYGADVNAADFLGDTPLHLAAYHGHLEIVEVLLKHGADVNASDITGETPLHLAAHLGHLEIVEVLLKYGADVNAQDKFGKTAFDISIDNGNEDLAEILQKLN
notes: N-Cap-(AR)3-C-Cap
B7: 7D2 (designed binder)
chain: DLGKKLLEAARAGQDDEVRILMANGADVNAFDDFGSTPLHLAARSGHLEIVEVLLKHGADVNAHDMIGDTPLHLAAYHGHLEIVEVLLKYGADVNAKDTSGTTPLHLAADSGHLEIVEVLLKHGADVNAQDKFGKTAFDISIDNGNEDLAEILQKLN
notes: N-Cap-(AR)3-C-Cap
B8: C06_44C12 (designed binder)
chain: DLGKKLLEAASAGQDDEVHILMANGADVNALDDSGYTPLHLAAEDGHLEIVEVLLKHGADVNAADRMGDTPLHLAAFVGHLEIVEVLLKYGADVNAVDLAGVTPLHVAAFYGHLEIVEVLLKYGADVNAQDKFGKTAFDISIDNGNEDLAEILQKLN
notes: as for B1
B9: C06_44F6 (designed binder)
chain: B8 chain with K5E, S11R, A64M, R66N, M67I, D69N, P71S, V78D, Y123H
notes: as for B1
B10: C06_48F3 (designed binder)
chain: B8 chain with S11R, H19R, L31F, Y36L, E44D
notes: as for B1

What was measured:
[1] = target: T1, human IL4; test: cell-based or functional assay
[2] = target: T1, human IL4; test: SPR ProteOn, biotin-IL4 on neutravidin chip, 1:1 fit
Method: Purified binders selected as “hits” were ranked by their affinity on a ProteOn XPR-36 instrument (Bio-Rad). ProteOn is an optical biosensor instrument that measures protein-protein interactions in real time, based on Surface Plasmon Resonance technology similar to Biacore (GE). A rapid experimental protocol was performed as follows: On a GLC sensor chip (Bio-Rad), Neutravidin (Thermo Scientific) was covalently immobilized to a density of >5000 RU using amine coupling chemistry as described by the manufacturer. On one flow cell, biotinylated IL4 (Peprotech) was immobilized to a level of 250 RU, while another flow cell was used as reference, with neutravidin immobilized only. […] The retrieved values were used to rank the AR proteins by their affinity.

[3] = target: T1, human IL4; test: Luminex competition, 67 pM biotin-IL4 binding to IL4RA-Fc beads
Method: For biotinylation of IL4, recombinant human IL4 (Peprotech) was biotinylated at a 4:1 ratio using EZ-Link NHS-LC-Biotin (Pierce, #21336) for 2 hours at RT. The protein was dialyzed in PBS overnight to remove excess biotinylation reagent. Competition binding for cynomologous IL4 (SEQ ID NO: 5) was performed using the isolated protein biotinylated in the same manner.
AR protein inhibition of IL4 binding to IL4 RA was assessed using IL4 RA-Fc (R&D Systems), comprising the Gly24-His232 which represents the ECD (SEQ ID NO: 5) fused to a human IgGl-Fc and therefor a disulfide linked homodimer. The protein was conjugated to carboxylated Luminex microspheres according to the manufacturer's protocol. For neutralization experiments, 5000 IL4RA-Fc conjugated beads in 50 μl were added to each well of a 96-well filter plate (Millipore). Biotinylated human IL4 was mixed with an appropriate dilution of AR protein in Luminex Assay Buffer (PBS, 1% BSA, pH 7.4) to give a final concentration of 67 pM IL4. The plate was incubated for 1 hour at RT in the dark on a plate shaker, set to shake vigorously to avoid bead aggregation. The plate was washed twice with 150 μl of wash buffer (PBS, 0.1% BSA, pH 7.4, 0.05% Tween-20) using a vacuum manifold followed by the addition of 50 μl of Streptavidin PE at 25 μg/ml and incubated at RT for 20 minutes. The plates were washed again and 150 μl of sheath fluid was added and the plate was placed on the shaker for 5 minute. Plates were read using a Luminex® 100 system; data were plotted as a function of AR protein concentration. IC₅₀ values were determined by fitting the data to the equation for sigmoidal dose response using PRISM software (GraphPAD PRISM) (Table 6).

[4] = target: T2, human IL13 (human, UniProt P35225 35-146, biotinylated in the SPR assays (sites not given)); test: cell-based or functional assay
[5] = target: cyno IL13 (cynomolgus monkey, UniProt Q0PW92 21-132); test: cell-based or functional assay
[6] = target: T2, human IL13; test: SPR BIAcore, biotin-IL13 on SA chip, global fit
Method: Recombinant human IL13 (Peprotech) was minimally biotinylated on ice using sulfo-NHS-LCLC-Biotin and desalted into the experimental running buffer containing 10 mM HEPES, 150 mM NaCl, pH 7.4, 0.01% Tween-20, and 0.1 mg/mL BSA. Biotinylated IL13 was captured at three different surface densities (from about 150, 50, and 25 RU) onto three different BIAcore SA (streptavidin) sensor chips. Each binding protein sample was tested at 40 nM as the highest concentration in a 3-fold dilution series over the three different density IL13 surfaces. The dissociation phase for the highest concentration of the binding protein sample was monitored for one hour. The response data from each of the different density surfaces was globally fitted in order to extract estimates of the kinetic and affinity constants which are provided in Table 7 below.

[7] = target: T3, human IL13 R130Q (human, UniProt P35225 35-146, biotinylated (sites not given)); test: Luminex competition, 80 pM biotin-IL13 R130Q binding to IL13Ra2-Fc beads
T3 construct: Peprotech; also called IL13R13Q; R111Q
Method: Binding protein inhibition of IL13 binding to Rα2 was assessed using IL13Rα2-Fc (R&D Systems) conjugated to carboxylated Luminex microspheres according to the manufacturer's protocol. For biotinylation of IL13, recombinant human IL13 R130Q (Peprotech) was biotinylated at a 4:1 ratio using EZ-Link NHS-LC-Biotin (Pierce, #21336) for 2 hours at RT. The protein was dialyzed in PBS overnight to remove excess biotinylation reagent. For neutralization experiments, 5000 IL13 Rα2-Fc conjugated beads in 50 μl were added to each well of a 96-well filter plate (Millipore). 50 μl of biotinylated human IL13 at 1 ng/ml (80 pM) was mixed with an appropriate dilution of binding protein in Luminex Assay Buffer (PBS, 1% BSA, pH 7.4). The plate was incubated for 1 hour at RT in the dark on a plate shaker, set to shake vigorously to avoid bead aggregation. The plate was washed 3 times with 150 μl of wash buffer (PBS, 1% BSA, pH 7.4, 0.05% Tween-20) using a vacuum manifold followed by the addition of 50 μl of Streptavidin PE at 25 μg/ml and incubated at RT for 20 minutes. The plates were washed again and 100 μl of sheath fluid was added and the plate was placed on the shaker for 1 minute. Plates were read using a Luminex® 100 system; data were plotted as a function of binding protein concentration. IC₅₀ values were determined by fitting the data to the equation for sigmoidal dose response using PRIZM software (GraphPAD PRIZM).

T2 sequence (P35225 other isoform, or with tags, fused parts or gaps limits assumed): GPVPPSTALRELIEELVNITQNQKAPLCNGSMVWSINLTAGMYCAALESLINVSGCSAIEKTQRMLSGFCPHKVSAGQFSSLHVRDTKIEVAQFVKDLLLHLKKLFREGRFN
T3 sequence (P35225 35-146 limits assumed, stated change not applied): as the sequence (P35225 other isoform, or with tags, fused parts or gaps limits assumed) above, with R110Q counted along it
Chain of cyno IL13 (Q0PW92 entry or part of it): as the sequence (P35225 other isoform, or with tags, fused parts or gaps limits assumed) above, with G1S, R10K, M42V, S67N, H83R, L100V, R110Q counted along it

Binder | HEK Stat6 Inhibition IC50 [1] [nM] | Kd [2] [nM] | koff [2] [s⁻¹] | kon [2] [M⁻¹ s⁻¹] | IC50 [3] [nM] | A549 TARC Inhibition IC50 [1] [nM] | Type 1 Complex inhibition IC50 [1] [nM] | STAT6 Phospho IC50 [4] [nM] | TARC expression IC50 [4] [nM] | Cyno IL13 STAT6 IC50 [5] [nM] | Kd [6] [nM] | koff [6] [s⁻¹] | kon [6] [M⁻¹ s⁻¹] | IC50 [7] [nM]
B1 | 0.0143 | 0.326 | 0.000281 | 862000 | 0.0178 |  |  |  |  |  |  |  |  | 
B2 | 0.0021 | 0.0734 | 5.11e-05 | 696000 | 0.0161 | 0.135 | 0.0009 |  |  |  |  |  |  | 
B3 | 0.0006 | 0.0749 | 7.16e-05 | 956000 | 0.0076 | 0.131 | 0.0004 |  |  |  |  |  |  | 
B4 |  |  |  |  |  |  |  | 0.0054 | 0.0341 | 0.159 | 0.168 | 0.000184 | 1.1e+06 | 0.0102
B5 |  |  |  |  |  |  |  | 0.0042 | 0.0833 | 0.0513 | 0.0776 | 9.08e-05 | 1.17e+06 | 0.0048
B6 |  |  |  |  |  |  |  | 0.0429 | 0.132 | 0.527 | 0.263 | 0.000894 | 3.4e+06 | 0.158
B7 |  |  |  |  |  |  |  | 0.0048 | 0.0146 | 0.307 | 0.0955 | 0.000292 | 3.06e+06 | 0.0083
B8 | 0.0011 | 0.0436 | 3.77e-05 | 864000 | 0.0203 | 0.231 | 0.0017 |  |  |  |  |  |  | 
B9 | 0.0064 | 0.0967 | 0.0002 | 2.07e+06 | 0.0158 | 0.142 | 0.0249 |  |  |  |  |  |  | 
B10 | 0.0047 | 0.174 | 0.000151 | 872000 | 0.0197 |  |  |  |  |  |  |  |  | 

Source: patent US20120277143A1 (Janssen / Centocor, published 2012)
